In patent publication US11795460B2, “Compositions and methods for TTR gene editing and treating ATTR amyloidosis” (Intellia Therapeutics, Inc., priority 2017, dated 2023):
Strand notation (5' to 3'): a small letter for the sugar, then the base; units joined by * are phosphorothioate-linked, units joined directly phosphodiester-linked; [ ] holds rarer units or linkages, { } end groups; capitals alone tell only the bases. m = 2'-O-methyl; r = 2'-OH (RNA)

B1: G000480: TTR sgRNA modified sequence, Human, SEQ ID No. 87; guide sequence of CR003353 (nucleic acid)
guide: mA*mA*mA*rGrGrCrUrGrCrUrGrArUrGrArCrArCrCrUrGrUrUrUrUrArGrAmGmCmUmAmGmAmAmAmUmAmGmCrArArGrUrUrArArArArUrArArGrGrCrUrArGrUrCrCrGrUrUrArUrCrAmAmCmUmUmGmAmAmAmAmAmGmUmGmGmCmAmCmCmGmAmGmUmCmGmGmUmGmCmU*mU*mU*mU
B2: G000486: TTR sgRNA modified sequence, Human, SEQ ID No. 93; guide sequence of CR003339 (nucleic acid)
guide: mA*mC*mA*rCrArArArUrArCrCrArGrUrCrCrArGrCrArGrUrUrUrUrArGrAmGmCmUmAmGmAmAmAmUmAmGmCrArArGrUrUrArArArArUrArArGrGrCrUrArGrUrCrCrGrUrUrArUrCrAmAmCmUmUmGmAmAmAmAmAmGmUmGmGmCmAmCmCmGmAmGmUmCmGmGmUmGmCmU*mU*mU*mU
B3: G000502: TTR Cyno specific sgRNA modified sequence, SEQ ID No. 114; guide sequence of CR000689; cross homologous between mouse and cyno (nucleic acid)
guide: mA*mC*mA*rCrArArArUrArCrCrArGrUrCrCrArGrCrGrGrUrUrUrUrArGrAmGmCmUmAmGmAmAmAmUmAmGmCrArArGrUrUrArArArArUrArArGrGrCrUrArGrUrCrCrGrUrUrArUrCrAmAmCmUmUmGmAmAmAmAmAmGmUmGmGmCmAmCmCmGmAmGmUmCmGmGmUmGmCmU*mU*mU*mU
B4: G000493: TTR sgRNA modified sequence, Human, SEQ ID No. 100; guide sequence of CR003368 (nucleic acid)
guide: mA*mA*mG*rUrGrCrCrUrUrCrCrArGrUrArArGrArUrUrGrUrUrUrUrArGrAmGmCmUmAmGmAmAmAmUmAmGmCrArArGrUrUrArArArArUrArArGrGrCrUrArGrUrCrCrGrUrUrArUrCrAmAmCmUmUmGmAmAmAmAmAmGmUmGmGmCmAmCmCmGmAmGmUmCmGmGmUmGmCmU*mU*mU*mU
B5: G000482: TTR sgRNA modified sequence, Human, SEQ ID No. 89; guide sequence of CR003365 (nucleic acid)
guide: mU*mG*mU*rArGrArArGrGrGrArUrArUrArCrArArArGrGrUrUrUrUrArGrAmGmCmUmAmGmAmAmAmUmAmGmCrArArGrUrUrArArArArUrArArGrGrCrUrArGrUrCrCrGrUrUrArUrCrAmAmCmUmUmGmAmAmAmAmAmGmUmGmGmCmAmCmCmGmAmGmUmCmGmGmUmGmCmU*mU*mU*mU
B6: G000488: TTR sgRNA modified sequence, Human, SEQ ID No. 95; guide sequence of CR003346 (nucleic acid)
guide: mA*mA*mA*rGrUrUrCrUrArGrArUrGrCrUrGrUrCrCrGrGrUrUrUrUrArGrAmGmCmUmAmGmAmAmAmUmAmGmCrArArGrUrUrArArArArUrArArGrGrCrUrArGrUrCrCrGrUrUrArUrCrAmAmCmUmUmGmAmAmAmAmAmGmUmGmGmCmAmCmCmGmAmGmUmCmGmGmUmGmCmU*mU*mU*mU
B7: G000490: TTR sgRNA modified sequence, Human, SEQ ID No. 97; guide sequence of CR003366 (nucleic acid)
guide: mA*mA*mA*rUrArGrArCrArCrCrArArArUrCrUrUrArCrGrUrUrUrUrArGrAmGmCmUmAmGmAmAmAmUmAmGmCrArArGrUrUrArArArArUrArArGrGrCrUrArGrUrCrCrGrUrUrArUrCrAmAmCmUmUmGmAmAmAmAmAmGmUmGmGmCmAmCmCmGmAmGmUmCmGmGmUmGmCmU*mU*mU*mU
B8: G000481: TTR sgRNA modified sequence, Human, SEQ ID No. 88; guide sequence of CR003345 (nucleic acid)
guide: mU*mC*mU*rArGrArArCrUrUrUrGrArCrCrArUrCrArGrGrUrUrUrUrArGrAmGmCmUmAmGmAmAmAmUmAmGmCrArArGrUrUrArArArArUrArArGrGrCrUrArGrUrCrCrGrUrUrArUrCrAmAmCmUmUmGmAmAmAmAmAmGmUmGmGmCmAmCmCmGmAmGmUmCmGmGmUmGmCmU*mU*mU*mU
B9: G000489: TTR sgRNA modified sequence, Human, SEQ ID No. 96; guide sequence of CR003344 (nucleic acid)
guide: mU*mU*mU*rGrArCrCrArUrCrArGrArGrGrArCrArCrUrGrUrUrUrUrArGrAmGmCmUmAmGmAmAmAmUmAmGmCrArArGrUrUrArArArArUrArArGrGrCrUrArGrUrCrCrGrUrUrArUrCrAmAmCmUmUmGmAmAmAmAmAmGmUmGmGmCmAmCmCmGmAmGmUmCmGmGmUmGmCmU*mU*mU*mU
B10: G000500: TTR sgRNA modified sequence, Human, SEQ ID No. 107; guide sequence of CR003337 (nucleic acid)
guide: mC*mC*mA*rGrUrCrCrArGrCrArArGrGrCrArGrArGrGrGrUrUrUrUrArGrAmGmCmUmAmGmAmAmAmUmAmGmCrArArGrUrUrArArArArUrArArGrGrCrUrArGrUrCrCrGrUrUrArUrCrAmAmCmUmUmGmAmAmAmAmAmGmUmGmGmCmAmCmCmGmAmGmUmCmGmGmUmGmCmU*mU*mU*mU

Tested on: TTR mRNA
Test: TTR mRNA knockdown in primary human hepatocytes by quantitative PCR (Tables 34, 35)
Assay type: cell-based
Conditions: TTR mRNA in PHH; LNP dose 100 ng mRNA cargo; 96 hours after treatment; separate experiment; vs untreated control
Protocol: In one experiment, PHH were cultured and treated with LNPs comprising Cas9 mRNA (SEQ ID NO:1) and a gRNA of interest (See FIG. 29, Table 34), as described in Example 4. The LNPs were prepared using the cross-flow procedure described above and purified and concentrated using PD-10 columns and Amicon centrifugal filter units, respectively. The LNPs were formulated with an N:P ratio of 6.0 and contained Lipid A, Cholesterol, DSPC, and PEG2k-DMG in a 50:38:9:2 molar ratio, respectively. The LNPs comprised a gRNA:mRNA ratio of 1:2, and the cells were treated at a dose of 300 ng (with respect to the amount of mRNA cargo delivered).
(§1) Ninety-six (96) hours following LNP treatment (with biological triplicates for each condition), mRNA was purified from PHH cells using the Dynabeads mRNA DIRECT Kit (ThermoFisher Scientific) according to the manufacturer's protocol. Reverse Transcription (RT) was performed with Maxima reverse transcriptase (ThermoFisher Scientific) and a poly-dT primer. The resulting cDNA was purified with Ampure XP Beads (Agencourt). For Quantitative PCR, 2% of the purified cDNA was amplified with Taqman Fast Advanced Mastermix and 3 Taqman probe sets, TTR (Assay ID: Hs00174914_m1), GAPDH (Assay ID: Hs02786624_g1), and PPIB (Assay ID: Hs00168719_m1). The assays were run on the QuantStudio 7 Flex Real Time PCR System according to the manufacturer's instructions (Life Technologies). Relative expression of TTR mRNA was calculated by normalizing to the endogenous controls (GAPDH and PPIB) individually, and then averaged.
In a separate experiment, TTR mRNA knockdown was evaluated following treatment with LNPs comprising G000480, G000486, and G000502. The LNPs were formulated and PHH were cultured and treated with the LNPs, each as described in the experiment above in this Example with the exception that the cells were treated at a dose of 100 ng (with respect to the amount of mRNA cargo delivered).
as §1, with “(single treatment” for “(with biological triplicates”, “the High Capacity cDNA Reverse Transcription Kit” for “Maxima reverse transcriptase”, “according to the manufacturer's instructions.” for “and a poly-dT primer. The resulting cDNA was purified with Ampure XP Beads (Agencourt).”, “the” for “the purified”

Q: For B1, which “Avg % Knockdown” value is on record?
A: Its value is 95.61%.

Q: With B2 as the molecule, how does the “Avg % Knockdown” value read?
A: The value was 97.36%.

Q: With B3 as the molecule, how does the “Avg % Knockdown” value read?
A: Its value is 90.94%.

Same assay, conditions: TTR mRNA in PHH; LNP dose 300 ng mRNA cargo; gRNA:mRNA 1:2; 96 hours after treatment; biological triplicates; vs untreated control

Q: With B4 as the molecule, how does the “Avg % Knockdown” value read?
A: The value was 87.53%.

Q: Which “Avg % Knockdown” value does the source give for B5 here?
A: Its value is 82.31%.

Q: How did the “Avg % Knockdown” value turn out when B6 was run?
A: The value was 92.77%.

Q: Which “Avg % Knockdown” value does the source give for B1 here?
A: Its value is 95.19%.

Q: With B7 as the molecule, how does the “Avg % Knockdown” value read?
A: Its value is 78.34%.

Q: How did the “Avg % Knockdown” value turn out when B8 was run?
A: Its value is 91.39%.

Q: How did the “Avg % Knockdown” value turn out when B9 was run?
A: The value was 91.85%.

Q: Which “Avg % Knockdown” value does the source give for B10 here?
A: Its value is 92.90%.

Tested on: TTR
Test: TTR editing in primary cyno hepatocytes electroporated with Spy Cas9 protein and sgRNAs (Tables 14, 15)
Assay type: cell-based, cynomolgus monkey
Conditions: Table 14; primary cyno hepatocytes electroporated with Spy Cas9 protein (RNP) and sgRNAs
Summary of the method: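 Spy Cas9 RNPs with boiled sgRNAs electroporated (Lonza P3 buffer, program EX-147) into primary cynomolgus hepatocytes; harvest at 24, 48 or 72 h. TTR target site PCR-amplified and sequenced on Illumina MiSeq, reads aligned to mf5; percent editing is reads with indels or substitutions over total reads.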

Q: How did the “Avg % Deletion” value turn out when B4 was run?
A: Its value is 2.10%.

Q: And the “Avg % Edit” value?
A: Its value is 50.13%.

Q: And the “Avg % Insert” value?
A: Its value is 48.07%.

Q: With B5 as the molecule, how does the “Avg % Deletion” value read?
A: The value was 20.03%.

Q: What about the “Avg % Edit” value of the same molecule?
A: The value was 75.17%.

Q: And the “Avg % Insert” value?
A: The value was 55.23%.

Q: B6 was tested. Which “Avg % Deletion” value did it give?
A: Its value is 4.27%.

Q: And the “Avg % Edit” value?
A: Its value is 9.63%.

Q: And the “Avg % Insert” value?
A: The value was 5.37%.

Q: How did the “Avg % Deletion” value turn out when B1 was run?
A: Its value is 0.37%.

Q: And the “Avg % Edit” value?
A: The value was 10.20%.

Q: And the “Avg % Insert” value?
A: The value was 9.83%.

Q: Which “Avg % Deletion” value does the source give for B2 here?
A: The value was 68.07%.

Q: And the “Avg % Edit” value?
A: Its value is 79.90%.

Q: And the “Avg % Insert” value?
A: The value was 11.90%.

Q: How did the “Avg % Deletion” value turn out when B7 was run?
A: Its value is 7.27%.

Q: What about the “Avg % Edit” value of the same molecule?
A: Its value is 61.67%.

Q: What about the “Avg % Insert” value of the same molecule?
A: Its value is 54.47%.

Q: With B8 as the molecule, how does the “Avg % Deletion” value read?
A: Its value is 35.50%.

Q: What about the “Avg % Edit” value of the same molecule?
A: Its value is 69.13%.

Q: And the “Avg % Insert” value?
A: Its value is 33.73%.

Q: With B9 as the molecule, how does the “Avg % Deletion” value read?
A: The value was 14.17%.

Q: And the “Avg % Edit” value?
A: The value was 67.53%.

Q: What about the “Avg % Insert” value of the same molecule?
A: The value was 53.53%.

Q: B10 was tested. Which “Avg % Deletion” value did it give?
A: The value was 2.63%.

Q: What about the “Avg % Edit” value of the same molecule?
A: Its value is 45.20%.

Q: What about the “Avg % Insert” value of the same molecule?
A: The value was 42.60%.

Same assay, conditions: Table 15; primary cyno hepatocytes electroporated with Spy Cas9 protein (RNP) and cyno specific sgRNAs

Q: How did the “Avg % Deletion” value turn out when B3 was run?
A: Its value is 81.27%.

Q: And the “Avg % Edit” value?
A: Its value is 95.10%.

Q: What about the “Avg % Insert” value of the same molecule?
A: Its value is 13.97%.
